Assay results as given in paper PMC6474821.
Read-outs that look alike come from different tables or passages of the source.

What was measured:
Assay in all cases: fluorescence anisotropy
[1] = molecular target: htCREBD,4 (unphosphorylated) (UniProt P15337-1 1-341, C90A;V118D;C300S;C310S;C337S;del162-272)
CREB bZip [2] = molecular target: T1, CREB bZip (Rattus norvegicus, UniProt P15337-1 270-341, C300S;C310S;C337S)
T1 sequence: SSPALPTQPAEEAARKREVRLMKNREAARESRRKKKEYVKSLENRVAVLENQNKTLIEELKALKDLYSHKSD

CREB bZip [3] = molecular target: T1, CREB bZip; remark: listed apart in the source

B1: half-site CRE 14-mer (dsDNA)
DNA 1: ATCTGCGTCAGAGT
DNA 2: ACTCTGACGCAGAT
- binding result [1]: binds
- Kd (CREB bZip [2]): ~38 nM
- Kd (CREB bZip [3]): ~32 nM
